Test [1] concerns the target RPA2 (subunit of the RPA trimer) (UniProt P15927). The experiment in a line: MST with dye-labelled RPA trimer.
For test [2] the target is unchanged. The experiment in a line: peptide-bead pull-down, anti-RPA2 blot.
Test [3] addresses RPA2 WH (Homo sapiens) (UniProt P15927). The experiment in a line: NMR. The conditions noted are these: cited from earlier work.
Test [4] has the same target. The experiment in a line: ITC. The settings on record: cited from earlier work.
Test [5] addresses human replication protein A (RPA) heterotrimer, recombinant (human) (UniProt P27694).
The target in test [6] is RPA trimer lacking the RPA2 winged-helix domain (RPA-ΔWH) (human) (UniProt P27694).
Chain of RPA trimer lacking the RPA2 winged-helix domain (RPA-ΔWH) (human) (P27694 whole entry, stated change not applied, chain 1 of 3, the tested form may be a part): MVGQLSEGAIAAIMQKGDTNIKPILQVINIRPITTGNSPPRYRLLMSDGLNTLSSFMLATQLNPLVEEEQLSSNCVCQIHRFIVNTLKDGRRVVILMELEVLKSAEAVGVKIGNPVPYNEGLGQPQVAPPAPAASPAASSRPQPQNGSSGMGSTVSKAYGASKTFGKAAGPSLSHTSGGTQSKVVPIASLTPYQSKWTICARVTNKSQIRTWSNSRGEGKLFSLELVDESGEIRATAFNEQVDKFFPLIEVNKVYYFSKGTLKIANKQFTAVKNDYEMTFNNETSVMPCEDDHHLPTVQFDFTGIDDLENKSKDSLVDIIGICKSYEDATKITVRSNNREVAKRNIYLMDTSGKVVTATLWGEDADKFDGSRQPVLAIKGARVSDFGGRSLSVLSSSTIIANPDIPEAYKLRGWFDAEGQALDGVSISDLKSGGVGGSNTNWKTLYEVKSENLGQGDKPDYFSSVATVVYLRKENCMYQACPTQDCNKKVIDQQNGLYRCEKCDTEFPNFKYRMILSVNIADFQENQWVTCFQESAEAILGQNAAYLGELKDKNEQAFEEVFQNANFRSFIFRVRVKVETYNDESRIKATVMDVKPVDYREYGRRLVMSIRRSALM
Chain of RPA trimer lacking the RPA2 winged-helix domain (RPA-ΔWH) (human) (chain, as listed by the source mutant, chain 2 of 3): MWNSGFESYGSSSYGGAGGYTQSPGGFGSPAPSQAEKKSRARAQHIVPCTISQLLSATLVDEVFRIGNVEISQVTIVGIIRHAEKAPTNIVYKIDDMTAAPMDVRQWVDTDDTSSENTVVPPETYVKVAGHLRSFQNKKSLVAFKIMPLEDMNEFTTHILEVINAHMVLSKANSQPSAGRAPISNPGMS
Chain of RPA trimer lacking the RPA2 winged-helix domain (RPA-ΔWH) (human) (chain, as listed by the source mutant, chain 3 of 3): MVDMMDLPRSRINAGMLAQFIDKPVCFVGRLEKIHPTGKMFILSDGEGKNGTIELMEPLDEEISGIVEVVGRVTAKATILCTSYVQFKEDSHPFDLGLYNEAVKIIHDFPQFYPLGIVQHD
In test [7] the target is human replication protein A (RPA) heterotrimer, recombinant (human) (UniProt P27694). The source holds these as a separate data set.
Chain of human replication protein A (RPA) heterotrimer, recombinant (human) (P27694 whole entry, chain 1 of 3, the tested form may be a part): as the sequence (P27694 whole entry, stated change not applied, chain 1 of 3, the tested form may be a part) above
Chain of human replication protein A (RPA) heterotrimer, recombinant (human) (P15927 whole entry, chain 2 of 3, further chain, the tested form may be a part): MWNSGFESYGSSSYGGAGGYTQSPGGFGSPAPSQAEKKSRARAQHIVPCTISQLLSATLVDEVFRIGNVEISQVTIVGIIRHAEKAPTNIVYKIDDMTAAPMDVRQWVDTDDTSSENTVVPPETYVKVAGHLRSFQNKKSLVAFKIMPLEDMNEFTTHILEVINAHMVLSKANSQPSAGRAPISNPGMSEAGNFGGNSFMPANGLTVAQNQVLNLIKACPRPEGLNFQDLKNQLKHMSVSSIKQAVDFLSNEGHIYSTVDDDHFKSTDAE
Chain of human replication protein A (RPA) heterotrimer, recombinant (human) (P35244 whole entry, chain 3 of 3, further chain, the tested form may be a part): as the sequence (chain, as listed by the source mutant, chain 3 of 3) above

The values below come from paper PMC8053108, “RPA2 winged-helix domain facilitates UNG-mediated removal of uracil from ssDNA; implications for repair of mutagenic uracil at the replication fork” (Nucleic Acids Research, 2021).

In general, Kd refers to a measure of binding affinity in units of concentration.

Chain of UNG catalytic domain (UNG-CD), starting at UNG2 aa 93 (P13051 93-313): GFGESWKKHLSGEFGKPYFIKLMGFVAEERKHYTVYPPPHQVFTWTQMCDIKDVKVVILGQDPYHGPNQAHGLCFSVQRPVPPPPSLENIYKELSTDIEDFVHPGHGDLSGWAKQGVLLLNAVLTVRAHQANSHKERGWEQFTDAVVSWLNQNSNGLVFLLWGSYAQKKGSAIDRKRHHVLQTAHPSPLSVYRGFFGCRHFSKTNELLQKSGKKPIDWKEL
Chain of RPA2 WH (Homo sapiens) (P15927 172-270): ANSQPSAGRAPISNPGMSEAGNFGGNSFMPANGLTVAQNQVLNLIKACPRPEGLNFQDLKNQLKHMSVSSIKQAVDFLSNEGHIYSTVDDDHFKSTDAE
Chain of UNG2 peptide (16 aa) (P13051 whole entry): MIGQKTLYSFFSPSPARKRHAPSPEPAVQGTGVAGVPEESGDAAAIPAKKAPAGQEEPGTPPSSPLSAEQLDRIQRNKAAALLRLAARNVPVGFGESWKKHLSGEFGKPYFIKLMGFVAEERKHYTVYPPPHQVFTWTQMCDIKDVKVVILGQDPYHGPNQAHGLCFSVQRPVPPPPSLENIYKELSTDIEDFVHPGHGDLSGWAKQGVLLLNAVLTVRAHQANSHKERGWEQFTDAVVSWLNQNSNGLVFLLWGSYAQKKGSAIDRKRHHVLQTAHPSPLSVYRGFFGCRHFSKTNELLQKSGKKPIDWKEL
Chain of UNG2 peptide (24 aa) (P13051 whole entry): as above

Regarding “UNG2 57-90 (from UniProt P13051) pEV-34 (pT60) peptide”, the “binding against the reference” value in test [1] (reference: EV-34 unphosphorylated peptide, sites T60) is on record as “weaker”. “UNG2 57-90 (from UniProt P13051) pEV-34 (pT60) peptide beads”: the “binding against the reference” value in test [2] (reference: EV-34 unphosphorylated peptide beads, sites T60) is listed as “weaker”.

Turning to “UNG2 57-90 (from UniProt P13051) ppEV-34 (pT60, pS64) peptide”, the “binding against the reference” value in test [1] (reference: EV-34 unphosphorylated peptide, sites T60,S64) was “weaker”; in test [1] (reference: pEV-34 (pT60) peptide, sites S64), “weaker”. As for “UNG2 57-90 (from UniProt P13051) ppEV-34 (pT60, pS64) peptide beads”, the “binding against the reference” value in test [2] (reference: EV-34 unphosphorylated peptide beads, sites T60,S64) is on record as “weaker”; in test [2] (reference: pEV-34 (pT60) peptide beads, sites S64) it was “weaker”. On to “UNG2 peptide (16 aa) (from UniProt P13051)”, for which, in test [3], the equilibrium dissociation constant (Kd) was under 1 µM. For “UNG2 peptide (24 aa) (from UniProt P13051)”, the Kd in test [4] was 6.6 µM. As to “UNG catalytic domain (UNG-CD), starting at UNG2 aa 93 (from UniProt P13051-1 93-313) (domain or fragment)”, the fold decrease in uracil excision from RPA (1 µM)-coated against naked ssDNA (100 nM U10-25*) in test [5] came to 1000 fold. For the same substance, the fold increase of enzyme concentration needed to convert similar amounts of dsDNA substrate with 500 nM RPA-ΔWH in test [6] was 50 fold. For the same substance, in test [7], the fold increase of enzyme concentration needed to convert similar amounts of dsDNA substrate with 500 nM RPA-WT worked out at 200 fold.
